Assays:
[1] = target: T1, Fc alpha receptor-ECD-streptavidin-Alexa488 (human, UniProt P24071 22-227, labeled with Alexa488 fluorescent molecules (sites not given)); assay: flow cytometry, scFv displayed on E. coli spheroplasts, 50 nM Alexa488-labelled antigen
T1 construct: Tetrameric antigen made in Expi293F cells and labelled with Alexa488 for flow cytometry; Any linker or purification tag (Ni-NTA resin was used) is not described; also called Fc alpha receptor-ECD-streptavidin-Alexa488 probe; Fc alpha receptor-ECD-streptavidin-Alexa488 antigen; not shown: streptavidin tag

[2] = target: T1, Fc alpha …; assay: flow cytometry, legend of FIG. 8

T1 sequence (P24071 22-227 limits assumed): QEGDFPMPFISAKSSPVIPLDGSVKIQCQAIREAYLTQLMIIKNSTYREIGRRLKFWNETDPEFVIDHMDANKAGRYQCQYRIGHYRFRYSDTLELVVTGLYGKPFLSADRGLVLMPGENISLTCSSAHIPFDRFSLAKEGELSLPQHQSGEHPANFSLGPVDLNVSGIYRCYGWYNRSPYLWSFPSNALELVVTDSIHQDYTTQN

Binder	binding result [1]	binding result [2]
scFv antibody variant JS9 (scFv, V domains shown) VH: EVQLVGSGGGVVQPGRSLRLSCAASGFNFDDHAMHWVRQAPGKGLEWVSSISGSGGDTYYADSVKGRFTIARDNSKNTLYLQMNSLRAEDTAVYYCATEARGLAHWGQGTLVTVSS VL: SSELTQDPAVSVALGQTASITCSGHKLGERYACWYQQKPGQSPVLVIYQDTKRPSGIPERFSGSNTGNTATLTITGTQAMDEADYYCQAWDSSTVVFGGGTKLTVLG	binds	
scFv antibody variant JS144 (scFv, V domains shown) VH: QVQLQESGGGLVQPGGSLRLACAGSGFTFSNFAMAWVRLAPGKGLEWVSGISDDGTITDYADSVKGRFTISRDNSKNTLYLQMNSLRAEDTAVYYCVRVPSPAPVQGPDYWGQGTTVTVSS VL: DVVMTQSPSAMSASVGDRVTITCRASQGISNYLAWFQQKPGKVPKRLIYAASSLQGGVPSRFRGRGSGTDFTLSISCLQSEDFATYYCQQYHSYPLTFGGGTKLSVLG	binds	
scFv antibody variant JS48 (scFv, V domains shown) VH: QVQLQESGGGLVQPGGSLRLTCAGSGFTFSNFAMAWVRLAPGKGLEWVSGISDDGTITDYADSVKGRFTISRDNSKNTLYLQMNSLRAEDTAVYYCVKVPSPAPMQGPDYWGQGTLVTVSS VL: ETTLTQSPSSLSASVGDRVTITCRASQSISTYLNWYQQKPGKAPKSLIYGASNLQSGVSSQFSGRGPGTDFTLTISSLQPEDFATYYCQQGNSVPLTFGGGTKVDIKR	binds	
scFv antibody variant JS30 (scFv, V domains shown) VH: EVQLVESGPGQVKPSETLSLTCSVSGGSISSRDWWGWVRQPPGEGLEWIGEIYHSGTTNYNPSLKSRVTMSMDTSKNQLSLKLTGVTAVDTAVYYCVTYSASDAAFDSWGQGTLVTVSS VL: ETTLTQSPSSLSASVGDRITITCRASQSISTCLNWYQQKPGKAPKSLIYGASILQSGVSSQFSGSGPGTDFTLTIGSLQPEGFATYYCQQGNSVPLTFGGGTKVDIKR	binds	

More lines, now with the values ahead:

binding result [1]	binding result [2]	Binder
	binds	scFv antibody variant JS116 (scFv, V domains shown, No full VH/VL is printed) VH: QVQLQESGGGLVQPGGSLRLACAGSGFTFSNFAMAWVRLAPGKGLEWVSGISDDGTITDYADSVKGRFTISRDNSKNTLYLQMNSLRAEDTAVYYCVRVPPPAPVQGPDYWGQGTTVTVSS VL: DVVMTQSPSAMSASVGDRVTITCRASQGISNYLAWFQQKPGKVPKRLIYAASSLQGGVPSRFRGRGSGTDFTLSISCLQSEDFATYYCQQYHSYPLTFGGGTKLSVLG
binds		scFv antibody variant JS41 (scFv, V domains shown) VH: EVQLVESGPGQVKPSETLSLTCSVSGGSISSRDWWGWVRQPPGEGLEWIGEIYHSGTTNYNPSLKSRVTMSMDTSKNQLSLKLTGVTAVDTAVYYCVTYSAYDAAFDSWGQGTLVTVSS VL: ETTLTQSPSSLSASVGDRITITCRASQSISTYLSWYQQKPGKAPKSLIYGASNLQSGVSSQFRGSGPGTDFTLTISSLQPEDFATYYCQQGNSVPLTFGGGTKVDIKR

— US20230399407A1 (KOREA UNIVERSITY RESEARCH AND BUSINESS FOUNDATION, published 2023)
